Experimental data taken from PMC4994030 (Scientific Reports, 2016).

B1: GH2-42 scFv (scFv, V domains shown)
VH: EVQLVESGGGLVQPGGSLRLSCAASGFTISNWGIHWVRQAPGKGLEWVAGIGPYGGYTSYADSVKGRFTISADTSKNTAYLQMNSLRAEDTAVYYCARFGFYFDGIMDYWGQGTLVTVSS
VL: DIQMTQSPSSLSASVGDRVTITCRASQDVSSGVAWYQQKPGKAPKLLISGPTGLYSGVPSRFSGSGSGTDFTLTISSLQPEDFATYYCQQYYDWPLTFGQGTKVKRG
notes: also called scFv(GH2-42); source: E. coli ER2738, secreted, in filtered culture supernatant
B2: GH2-72 scFv (scFv, V domains shown)
VH: EVQLVESGGGLVQPGGSLRLSCAASGFTISNGGIHWVRQAPGKGLEWVAYIWPSGGYTFYADSVKGRFTISADTSKNTAYLQMNSLRAEDTAVYYCARFFNNDWIGMDYWGQGTLVTVSS
VL: DIQMTQSPSSLSASVGDRVTITCRASQDVGYFVAWYQQKPGKAPKLLISGTTWLYSGVPSRFSGSGSGTDFTLTISSLQPEDFATYYCQQYSNWPLTFGQGTKVEIK
notes: source: E. coli ER2738, secreted, in filtered culture supernatant
B3: GH2-62 scFv (scFv, V domains shown)
VH: EVQLVESGGGLVQPGGSLRLSCAASGFTINNWGIHWVRQAPGKGLEWVAGIWPFGGYTYYADSVKGRFTISADTSKNTAYLQMNSLRAEDTAVYYCARFDYLNNGGMDYWGQGTLVTVSS
VL: DIQMTQSPSSLSASVGDRVTITCRASQDVGGYVAWYQQKPGKAPKLLIFGASGLYSGVPSRFSGSGSGTDFTLTISSLQPEDFATYYCQQFYSSPLTFGQGTKVEIK
notes: as for B2
B4: GH2-31 scFv (scFv, V domains shown)
VH: EVQLVESGGGLVQPGGSLRLSCAASGFTINNFGIHWVRQAPGKGLEWVASIGPFWGYTSYADSVKGRFTISADTSKNTAYLQMNSLRAEDTAVYYCARFGNDYDGVMDYWGQGTLVTVSS
VL: DIQMTQSPSSLSASVGDRVTITCRASQDVSWGVAWYQQKPGKAPKLLIYSPPWLYSGVPSRFSGSGSGTDFTLTISSLQPEDFATYYCQQYYNWPITFGQGTKVEIK
notes: as for B2
B5: GH2-101 scFv (scFv, V domains shown)
VH: EVQLVESGGGLVQPGGSLRLSCAASGFTINSYGIHWVRQAPGKGLEWVASIGPYWGYTSYADSVKGRFTISADTSKNTAYLQMNSLRAEDTAVYYCARFYIWFDGLMDYWGQGTLVTVSS
VL: DIQMAQSPSSLSASVGDRVTITCRASQDVSNGVAWYQQKPGKAPKLLIYGTTSLYSGVPSRFSGSGSGTDFTLTISSLQPEDFATYYCQQYYSWPLTFGQGTKVEIK
notes: as for B2
B6: GH2-61 scFv (scFv, V domains shown)
VH: EVQLVESGGGLVQPGGSLRLSCAASGFTINNWGIHWVRQAPGKGLEWVAGIWPYGGYTYYADSVKGRFTISADTSKNTAYLQMNSLRAEDTAVYYCARFYNHHGGVMDYWGQGTLVTVSS
VL: DIQMTQSPSSLSASVGDRVTITCRASQDVGSNVAWYQQKPGKAPKLLISWSTSLYSGVPSRFSGSGSGTDFTLTISSLQPEDFATYYCQQYGGWPITFGQGTKVEIK
notes: also called scFv(GH2-61); source: E. coli ER2738, secreted, in filtered culture supernatant
B7: GH2-92 scFv (scFv, V domains shown)
VH: EVQLVESGGGLVQPGGSLRLSCAASGFTIGNWGIHWVRQAPGKGLEWVASIGPFWGYTFYADSVKGRFTISADTSKNTAYLQMNSLRAEDTAVYYCARFGNHYDGIMDYWGQGTLVTVSS
VL: DIQMTQSPSSLSASVGDRVTITCRASQDVNDGVAWYQQKPGKAPKLLIFGSPYLFSGVPSRFSGSGSGTDFTLTISSLQPEDFATYYCQQYFSWPITFGQGTQVGIK
notes: as for B2
B8: GH2-75 scFv (scFv, V domains shown)
VH: EVQLVESGGGLVQPGGSLRLSCAASGSTIGNSGIHWVRQAPGKGLEWVAYIGPYGGYTSYADSVKGRFTISADTSKNTAYLQMNSLRAEDTAVYYCARFDDYHWDGMDYWGQGTLVTVSS
VL: DIQMTQSPSSLSASVGDRVIITCRASQDVSGYVAWYQQKPGKAPKLLIYSSGVPSRFSGSGSGTDFTLTISSLQPEDFATYYCQQYYNWPVTFGQGTKVEIK
notes: also called scFv(GH2-75); source: E. coli ER2738, secreted, in filtered culture supernatant
B9: GH2-24 scFv (scFv, V domains shown)
VH: EVQLVESGGGLVQPGGSLRLSCAASGFTIDNGSIHWVRQAPGKGLEWVAFIGPSGGYTFYADSVKGRFTISADTSKNTAYLQMNSLRAEDTAVYYCARFGWHNVDNMDYWGQGTLVTVSS
VL: DIQMTQSPSSLSASVGDRVTITCRASQDVGWGVAWYQQKPGKAPKLLISSTRSLYSGVPSRFSGSGSGTDFTLTISSLQPEDFATYYCQQYYNWPLTFGQGTKVEIK
notes: as for B2
B10: GH2-103 scFv (scFv, V domains shown)
VH: EVQLVESGGGLVQPGGSLRLSCAASGFTIDEYGIHWVRQAPGKGLEWVAFIGPYWGYTSYADSVKGRFTISADTSKNTAYLQMNSLRAEDTAVYYCARFGHLHDGLMDYWGQGTLVTVSS
VL: DIQMTQSPSSLSASVGDRVTITCRASQDVFSGVAWYQQKPGKAPKLLISGTPFLYSGVPSRFSGSGSGTDFTLTISSLQPEDFATYYCQQYYNWPITFGQGTKVEIK
notes: as for B2
B11: GH2-11 scFv (scFv, V domains shown)
VH: EVQLVESGGGLVQPGGSLRLSCAASGFTINDWGIHWVRQAPGKGLEWVAGIGPYGGYTSYADSVRGRFTISADTSKNTAYLQMNSLRAEDTAVYYCARFVNWDFYGMDYWGQGTLVTVSS
VL: DIQMTQSPSSLSASVGDRVTITCRASQDVGDGVAWYQQKPGKAPKLLIYSAGWLYSGVPSRFSGSGSGTDFTLTISSLQPEDFATYYCQQYYSYPITFGQGTKVEIK
notes: as for B2
B12: GH2-38 scFv (scFv, V domains shown)
VH: EVQLVESGGGLVQPGGSLRLSCAASGFTISDGGIHWVRQAPGKGLEWVAGIGPYGGYTSYADSVKGRFTISADTSKNTAYLQMNSLRAEDTAVYYCARFGDNFIGVMDYWGQGTLVTVSS
VL: DIQMTQSPSSLSASVGDRVTITCRASQDVFGGVAWYQQKPGKAPKLLIYGPSYLYSGVPSRFSGSGSGTDFTLTISSLQPEDFATYYCQQYSSWPITFGQGTKVEIK
notes: as for B2
B13: GH2-4 scFv (scFv, V domains shown)
VH: EVQLVESGGGLVQPGGSLRLSCAASGFTINSGSIHWVRQAPGKGLEWVAFIGPFGGYTSYADSVKGRFTISADTSKNTAYLQMNSLRAEDTAVYYCARFGWNDYDFMDYWGQGTLVTVSS
VL: DIQMTQSPSSLSASVGDRVTITCRASQDVFGGVAWYQQKPGKAPKLLIYSASFLYSGVPSRFSGSGSGTDFTLTISSLQPEDFATYYCQQYFDWPITFGQGTKVEIK
notes: as for B2
B14: GH2-26 scFv (scFv, V domains shown)
VH: EVQLVESGGGLVQPGGSLRLSCAASGFTISDYGIHWVRQAPGKGLEWVAFIGPYWGYTYYADSVKGRFTISADTSKNTAYLQMNSLRAEDTAVYYCARFYFFGDGLMDYWGQGTLVTVSS
VL: DIQMTQSPSSLSASVGDRVTITCRASQDVSSGVAWYQQKPGKAPKLLIYGTSSLYSGVPSRFSGSGSGTDFTLTISSLQPEDFATYYCQQYFNWPITFGQGTKVEIK
notes: as for B2
B15: GH2-102 scFv (scFv, V domains shown)
VH: EVQLVESGGGLVQPGGSLRLSCAASGFTINGGGIHWVRQAPGKGLEWVASIGPYGGYTSYADSVKGRFTISADTSKNTAYLQMNSLRAGDTAVYYCARFGHHYDGHMDYWGQGTLVTVSS
VL: DIQMTQSPSSLSASVGDRVTITCRASQDVGSNVAWYQQKPGKAPKLLIYGAPYLYSGVPSRFSGSGSGTDFTLTISSLQPEDFATYYCQQYYNWPLTFGQGTKVEIK
notes: as for B2
B16: GH2-40 scFv (scFv, V domains shown)
VH: EVQLVESGGGLVQPGGSLRLSCAASGFTINSWGIHWVRQAPGKGLEWVAWIGPYWGFTSYADSVKGRFTISADTSKNTAYLQMNSLRAEDTAVYYCARFDGHFDGVMDYWGQGTLVTVSS
VL: DIQMTQSPSSLSASVGDRVTITCRASQDVNNGVAWYQQKPGKAPKLLISGTPWLYSGVPSRFSGSGSGTDFTLTISSLQPEDFATYYCQQYFDWPLTFGQGTKVEIK
notes: as for B2
B17: GH2-107 scFv (scFv, V domains shown)
VH: EVQLVESGGGLVQPGGSLRLSCAASGFTISNFGIHWVRQAPGKGLEWVAYIGPYGGYTSYADSVKGRFTISADTSKNTAYLQMNSLRAEDAAVYYCARFHIHNLWGMDYWGQGTLVTVSS
VL: DIQMTQSPSSLSASVGDRVTITCRASQDVSDGVAWYQQKPGKAPKLLISGAGYLYSGVPSRFSGSGSGTDFTLTISSLQPEDFATYYCQQFYSWPITFGQGTKVEIK
notes: as for B2
B18: GH2-8 scFv (scFv, V domains shown)
VH: GVQLVESGGGLVQPGGSLRLSCAASGFTIGSSGIHWVRQAPGKGLEWVAGIWPYWGSTYYADSVKGRFTISADTSKNTAYLQMNSLRAEDTAVYYCARFGVGYHYYMDYWGQGTLVTVSS
VL: DIQMTQSPSSLSASVGDRVTITCRASQDVGWWVAWYQQKPGKAPKLLISGATGLYSGVPSRFSGSGSGTDFTLTISSLQPEDFATYYCQQSWDSPITFGQGTKVEIK
notes: as for B2
B19: GH2-12 scFv (scFv, V domains shown)
VH: EVQLVESGGGLVQPGGSLRLSCAASGFTINDWGIHWVRQAPGKGLEWVAGIWPYWGYTSYADSVKGRFTISADTSKNTAYLQMNSLRAEDTAVYYCARYHVYFWWMDYWGQGTLVTVSS
VL: DIQMTQSPSSLSASVGDRVTITCRASQDVSNNVAWYQQKPGKAPKLLIYGPSFLYSGVPSRFSGSGSGTDFTLTISSLQPEDFATYYCQQYYNYPITFGQGTKVEIK
notes: as for B2
B20: GH2-55 scFv (scFv, V domains shown)
VH: EVQLVESGGGLVQPGGSLRLSCAASGFTIDGFSIHWVRQAPGKGLEWVAGIGPYGGYTSYADSVKGRFTISADTSKNTAYLQMNSLRAEDTAVYYCARFDIWHNFGMDYWGQGTLVTVSS
VL: DIQMTQSPSSLSASVGDRVTITCRASQDVDGNVAWYQQKPGKAPKLLISSAGSLYSGVPSRFSGSGSGTDFTLTISSLQPEDFATYYCQQSWSWPLTFGQGTKVEIK
notes: as for B2

Target: T1, HER2-ECD (human epidermal growth factor receptor 2, extracellular domain) (Homo sapiens, UniProt P04626)
T1 construct: also called HER-ECD
Assay: ELISA
Conditions: one partner purified

Question: Does B1 bind?
Answer: binds

Question: Does B2 bind?
Answer: binds

Question: Does B3 bind?
Answer: binds

Question: Does B4 bind?
Answer: binds

Question: Does B5 bind?
Answer: binds

Question: Does B6 bind?
Answer: binds

Question: Does B7 bind?
Answer: binds

Question: Does B8 bind?
Answer: binds

Question: Does B9 bind?
Answer: binds

Question: Does B10 bind?
Answer: binds

Question: Does B11 bind?
Answer: binds

Question: Does B12 bind?
Answer: binds

Question: Does B13 bind?
Answer: binds

Question: Does B14 bind?
Answer: binds

Question: Does B15 bind?
Answer: binds

Question: Does B16 bind?
Answer: binds

Question: Does B17 bind?
Answer: binds

Question: Does B18 bind?
Answer: binds

Question: Does B19 bind?
Answer: binds

Question: Does B20 bind?
Answer: binds
